Measurements: paper PMC7173943

How the values were obtained:
HA-CXCR4(D20R)-Rluc3 = HA-CXCR4(D20R)-Rluc3 (UniProt P61073)
CXCR4(D187C)-T4L = CXCR4(D187C)-T4L (UniProt P61073); assay: cross-linking + pull-down; disulfide cross-linking: Cys mutants co-expressed in Sf9 cells; membranes solubilised in DDM/CHS; TALON metal affinity pull-down by the receptor His tag; non-reducing SDS-PAGE and Western blot (anti-Flag, anti-HA); IR800 signal relative to CXCR4(D187C)-vMIP-II(W5C) set to 100%

| β-arrestin-2 recruitment to HA-CXCR4-Rluc3 (BRET2, HEK293T cells), pEC50 (HA-CXCR4(D20R)-Rluc3) | Substance | fraction of extracted receptor cross-linked (CXCR4(D187C)-T4L) |
| --- | --- | --- |
| 5.89 -log10(EC50) | CXCL12(R47E) (from UniProt P48061-2 22-89) (ligand) |  |
|  | vMIP-II(W5C) (ligand) | 100% |
